Assays:
Assay type in all cases: biochemical, Azospirillum brasilense
[1] = substrate: CCCCCCC(=O)C(=O)O; test: HTP AbPPDC coupled enzyme assay (ADH6/NADPH), 2-ketoacid decarboxylation kinetics, F532V; settings: other: pH 6.8, 30° C, 2-ketoacid 0 to 4 mM, Hill equation, mean ± standard error
Procedure: (§1) The evaluation of the AbPPDC variants is performed in two steps using the high-throughput enzyme assay described hereinbelow. Initially, all the variants are tested for activity against a single high concentration (2 mM) of 2-KH and 2-KN (as shown in Table 1). Following the initial evaluation, detailed kinetic analysis is performed on a select number of variants to determine the maximal rate (kcat), substrate concentration yielding half maximal rate (K0.5, equivalent of KM for enzymes following Michaelis-Menten kinetics), and the catalytic efficiency of the enzyme (kcat/K0.5) against 2-KO and 2-KN (as shown in Table 2). AbPPDC variants, having higher specificity (higher kcat/K0.5) for 2-KN, will be efficient in producing octanal and chemicals derived from it inside the cells.
(§2) To evaluate the substrate specificity of the wild type AbPPDC and its variants listed in Table 1, genes of all the proteins are expressed in E. coli cells separately and the protein products are isolated from the cells. The gene sequence of the Azospirillum brasilense phenylpyruvate decarboxylase (GenBank: Accession no. L26240) is downloaded from the NCBI database. Codons of 13 additional amino acids that include six (6) histidines (his) are added upstream of the Met-1 codon of the AbPPDC gene sequence. Such a modification allows expression of a Histidine-tagged AbPPDC having 13 additional amino acids on the N-terminus. The additional amino acids are attached as an aid for purifying the protein in a single step using Ni-NTA chromatography. The entire AbPPDC sequence with 13 additional amino acids (SEQ ID 2) is chemically synthesized and then cloned into the pRSFDuet-1 vector (EMD Biosciences) downstream of the T7 polymerase promoter by Synthetic Genomics, Inc. (San Diego, Calif.). The final vector is sequenced by Synthetic Genomics, Inc. before shipping.
(§3) Genes of the AbPPDC variants listed in Table 1 are either chemically synthesized or generated using New England Biolab's Q5 Site-directed Mutagenesis Kit (cat. no. E0554S) and cloned into the pRSFDuet-1 vector. The pRSFDuet-1 vector containing AbPPDC or the AbPPDC variant gene is transformed into E. coli, AbPPDC or its variant, then expressed and eventually purified, as described below.
(§4) A high-throughput AbPPDC coupled enzyme assay is developed for evaluating the substrate specificity of AbPPDC variants. The assay involves reducing the aldehyde produced from AbPPDC mediated 2-ketoacid decarboxylation, using an alcohol dehydrogenase (ADH6, GenBank: Accession No. NP 014051.3). The initial velocities of the AbPPDC catalyzed reactions are determined from the rates of oxidation of reduced nicotinamide adenine dinucleotide phosphate (NADPH) occurring during the ADH6 catalyzed reduction of aldehyde.
(§5) The HTP screening assay involves incubating 2 mM 2-KH or 2 mM 2-KN with 0.5 mM thiamine diphosphate, 0.35 mM NADPH, 4.7 micrograms (μg) of yeast ADH6 (GenBank: Accession No. NP 014051.3) and 0.3 milligrams per milliliter (mg/mL) bovine serum albumin (BSA) in AbPPDC assay buffer (50 mM 3-(N-morpholino)propanesulfonic acid, pH 6.8, containing 2.5 mM magnesium chloride (MgCl2)) at 30° C. The reaction is started by addition at 30° C. of working enzyme stock containing from 0.5 μg to 3.5 μg of AbPPDC variant diluted in AbPPDC assay buffer containing 1 mg/mL BSA. The plate containing the 200 μL of reaction mixture is centrifuged at 2500×g for 15 sec and the absorbance change of the reaction mixture followed spectrophotometrically at 340 nm on a BioTek™ plate reader, pre-equilibrated at 30° C. Initial velocity of the enzyme reaction is calculated using the rate of NADPH consumption at 340 nm and the extinction coefficient of NADPH (6.22 mM^−1 cm^−1). The activity of all the variants is normalized with the amount of enzyme present in the reaction mixture and expressed as nanomoles per minute per milligram (nmol·min^−1·mg^−1). […]

[2] = substrate: CCCCCCCC(=O)C(=O)O; test: as above; settings: other: pH 6.8, 30° C, 2-ketoacid 0 to 4 mM, Hill equation, mean ± standard error
Procedure: as §1, §2, §3, §4, §5

[3] = substrate: CCCCCCC(=O)C(=O)O; test: HTP AbPPDC coupled enzyme assay (ADH6/NADPH), 2-ketoacid decarboxylation kinetics, Q536L; settings: other: pH 6.8, 30° C, 2-ketoacid 0 to 4 mM, Michaelis-Menten equation, mean ± standard error
Procedure: as §1, §2, §3, §4, §5

[4] = substrate: CCCCCCCC(=O)C(=O)O; test: as above; settings: other: pH 6.8, 30° C, 2-ketoacid 0 to 4 mM, Michaelis-Menten equation, mean ± standard error
Procedure: as §1, §2, §3, §4, §5

[5] = substrate: CCCCCCC(=O)C(=O)O; test: HTP AbPPDC coupled enzyme assay (ADH6/NADPH), 2-ketoacid decarboxylation kinetics, F532L; settings: other: pH 6.8, 30° C, 2-ketoacid 0 to 4 mM, Hill equation, mean ± standard error
Procedure: as §1, §2, §3, §4, §5

[6] = substrate: CCCCCCCC(=O)C(=O)O; test: as above; settings: other: pH 6.8, 30° C, 2-ketoacid 0 to 4 mM, Hill equation, mean ± standard error
Procedure: as §1, §2, §3, §4, §5

[7] = substrate: CCCCCCC(=O)C(=O)O; test: HTP AbPPDC coupled enzyme assay (ADH6/NADPH), 2-ketoacid decarboxylation kinetics, Q536A; settings: other: pH 6.8, 30° C, 2-ketoacid 0 to 4 mM, Hill equation, mean ± standard error
Procedure: as §1, §2, §3, §4, §5

[8] = substrate: CCCCCCCC(=O)C(=O)O; test: as above; settings: other: pH 6.8, 30° C, 2-ketoacid 0 to 4 mM, Hill equation, mean ± standard error
Procedure: as §1, §2, §3, §4, §5

[9] = substrate: CCCCCCC(=O)C(=O)O; test: HTP AbPPDC coupled enzyme assay (ADH6/NADPH), 2-ketoacid decarboxylation kinetics, Q536G; settings: other: pH 6.8, 30° C, 2-ketoacid 0 to 4 mM, Hill equation, mean ± standard error
Procedure: as §1, §2, §3, §4, §5

[10] = substrate: CCCCCCCC(=O)C(=O)O; test: as above; settings: other: pH 6.8, 30° C, 2-ketoacid 0 to 4 mM, Hill equation, mean ± standard error
Procedure: as §1, §2, §3, §4, §5

B1: Azospirillum brasilense phenylpyruvate decarboxylase (AbPPDC) variant F532V, SEQ ID 28 (Azospirillum brasilense; F532V) (protein)
chain: MKLAEALLRALKDRGAQAMFGIPGDFALPFFKVAEETQILPLHTLSHEPAVGFAADAAARYSSTLGVAAVTYGAGAFNMVNAVAGAYAEKSPVVVISGAPGTTEGNAGLLLHHQGRTLDTQFQVFKEITVAQARLDDPAKAPAEIARVLGAARALSRPVYLEIPRNMVNAEVEPVGDDPAWPVDRDALAACADEVLAAMRSATSPVLMVCVEVRRYGLEAKVAELAQRLGVPVVTTFMGRGLLADAPTPPLGTYIGVAGDAEITRLVEESDGLFLLGAILSDTNFAVSQRKIDLRKTIHAFDRAVTLGYHTYADIPLAGLVDALLEGLPPSDRTTRGKEPHAYPTGLQADGEPIAPMDIARAVNDRVRAGQEPLLIAADMGDCLFTAMDMIDAGLMAPGYYAGMGFGVPAGIGAQCVSGGKRILTVVGDGAFQMTGWELGNCRRLGIDPIVILFNNASWEMLRTFQPESAFNDLDDWRFADMAAGMGGDGVRVRTRAELKAALDKAFATRGRFQLIEAMIPRGVLSDTLARVVQGQKRLHAAPRE
notes: made in house; host or cells: E. coli BL21(DE3)
Work on B1 yielded a K0.5 [1] of 2.0 ± 0.1 mM, a kcat [1] of 0.163 ± 0.0033 s⁻¹ and a kcat/Km [1] of 80 ± 3.3 M⁻¹ s⁻¹. The K0.5 [2] was 0.89 ± 0.15 mM, the kcat [2] was 0.383 ± 0.033 s⁻¹ and the kcat/Km [2] was 450 ± 83 M⁻¹ s⁻¹.

B2: Azospirillum brasilense phenylpyruvate decarboxylase (AbPPDC) variant Q536L, SEQ ID 36 (Azospirillum brasilense; Q536L) (protein)
chain: MKLAEALLRALKDRGAQAMFGIPGDFALPFFKVAEETQILPLHTLSHEPAVGFAADAAARYSSTLGVAAVTYGAGAFNMVNAVAGAYAEKSPVVVISGAPGTTEGNAGLLLHHQGRTLDTQFQVFKEITVAQARLDDPAKAPAEIARVLGAARALSRPVYLEIPRNMVNAEVEPVGDDPAWPVDRDALAACADEVLAAMRSATSPVLMVCVEVRRYGLEAKVAELAQRLGVPVVTTFMGRGLLADAPTPPLGTYIGVAGDAEITRLVEESDGLFLLGAILSDTNFAVSQRKIDLRKTIHAFDRAVTLGYHTYADIPLAGLVDALLEGLPPSDRTTRGKEPHAYPTGLQADGEPIAPMDIARAVNDRVRAGQEPLLIAADMGDCLFTAMDMIDAGLMAPGYYAGMGFGVPAGIGAQCVSGGKRILTVVGDGAFQMTGWELGNCRRLGIDPIVILFNNASWEMLRTFQPESAFNDLDDWRFADMAAGMGGDGVRVRTRAELKAALDKAFATRGRFQLIEAMIPRGVLSDTLARFVQGLKRLHAAPRE
notes: as for B1
Work on B2 yielded a K0.5 [3] of 1.34 ± 0.23 mM, a kcat [3] of 0.45 ± 0.0283 s⁻¹ and a kcat/Km [3] of 350 ± 67 M⁻¹ s⁻¹. For the same protein, the K0.5 [4] was 1.51 ± 0.26 mM, the kcat [4] was 1.38 ± 0.1 s⁻¹ and the kcat/Km [4] was 933 ± 183 M⁻¹ s⁻¹.

B3: Azospirillum brasilense phenylpyruvate decarboxylase (AbPPDC) variant F532L, SEQ ID 30 (Azospirillum brasilense; F532L) (protein)
chain: MKLAEALLRALKDRGAQAMFGIPGDFALPFFKVAEETQILPLHTLSHEPAVGFAADAAARYSSTLGVAAVTYGAGAFNMVNAVAGAYAEKSPVVVISGAPGTTEGNAGLLLHHQGRTLDTQFQVFKEITVAQARLDDPAKAPAEIARVLGAARALSRPVYLEIPRNMVNAEVEPVGDDPAWPVDRDALAACADEVLAAMRSATSPVLMVCVEVRRYGLEAKVAELAQRLGVPVVTTFMGRGLLADAPTPPLGTYIGVAGDAEITRLVEESDGLFLLGAILSDTNFAVSQRKIDLRKTIHAFDRAVTLGYHTYADIPLAGLVDALLEGLPPSDRTTRGKEPHAYPTGLQADGEPIAPMDIARAVNDRVRAGQEPLLIAADMGDCLFTAMDMIDAGLMAPGYYAGMGFGVPAGIGAQCVSGGKRILTVVGDGAFQMTGWELGNCRRLGIDPIVILFNNASWEMLRTFQPESAFNDLDDWRFADMAAGMGGDGVRVRTRAELKAALDKAFATRGRFQLIEAMIPRGVLSDTLARLVQGQKRLHAAPRE
notes: as for B1
Work on B3 yielded a K0.5 [5] of 1.6 ± 0.1 mM, a kcat [5] of 0.217 ± 0.005 s⁻¹ and a kcat/Km [5] of 137 ± 5 M⁻¹ s⁻¹. It also gave a K0.5 [6] of 0.94 ± 0.27 mM, a kcat [6] of 0.5 ± 0.083 s⁻¹ and a kcat/Km [6] of 583 ± 200 M⁻¹ s⁻¹.

B4: Azospirillum brasilense phenylpyruvate decarboxylase (AbPPDC) variant Q536A, SEQ ID 34 (Azospirillum brasilense; Q536A) (protein)
chain: MKLAEALLRALKDRGAQAMFGIPGDFALPFFKVAEETQILPLHTLSHEPAVGFAADAAARYSSTLGVAAVTYGAGAFNMVNAVAGAYAEKSPVVVISGAPGTTEGNAGLLLHHQGRTLDTQFQVFKEITVAQARLDDPAKAPAEIARVLGAARALSRPVYLEIPRNMVNAEVEPVGDDPAWPVDRDALAACADEVLAAMRSATSPVLMVCVEVRRYGLEAKVAELAQRLGVPVVTTFMGRGLLADAPTPPLGTYIGVAGDAEITRLVEESDGLFLLGAILSDTNFAVSQRKIDLRKTIHAFDRAVTLGYHTYADIPLAGLVDALLEGLPPSDRTTRGKEPHAYPTGLQADGEPIAPMDIARAVNDRVRAGQEPLLIAADMGDCLFTAMDMIDAGLMAPGYYAGMGFGVPAGIGAQCVSGGKRILTVVGDGAFQMTGWELGNCRRLGIDPIVILFNNASWEMLRTFQPESAFNDLDDWRFADMAAGMGGDGVRVRTRAELKAALDKAFATRGRFQLIEAMIPRGVLSDTLARFVQGAKRLHAAPRE
notes: as for B1
B4 gave a K0.5 [7] of 0.72 ± 0.02 mM, a kcat [7] of 0.333 ± 0.0033 s⁻¹ and a kcat/Km [7] of 450 ± 17 M⁻¹ s⁻¹. The K0.5 [8] was 0.52 ± 0.03 mM, the kcat [8] was 0.5 ± 0.017 s⁻¹ and the kcat/Km [8] was 967 ± 67 M⁻¹ s⁻¹.

B5: Azospirillum brasilense phenylpyruvate decarboxylase (AbPPDC) variant Q536G, SEQ ID 32 (Azospirillum brasilense; Q536G) (protein)
chain: MKLAEALLRALKDRGAQAMFGIPGDFALPFFKVAEETQILPLHTLSHEPAVGFAADAAARYSSTLGVAAVTYGAGAFNMVNAVAGAYAEKSPVVVISGAPGTTEGNAGLLLHHQGRTLDTQFQVFKEITVAQARLDDPAKAPAEIARVLGAARALSRPVYLEIPRNMVNAEVEPVGDDPAWPVDRDALAACADEVLAAMRSATSPVLMVCVEVRRYGLEAKVAELAQRLGVPVVTTFMGRGLLADAPTPPLGTYIGVAGDAEITRLVEESDGLFLLGAILSDTNFAVSQRKIDLRKTIHAFDRAVTLGYHTYADIPLAGLVDALLEGLPPSDRTTRGKEPHAYPTGLQADGEPIAPMDIARAVNDRVRAGQEPLLIAADMGDCLFTAMDMIDAGLMAPGYYAGMGFGVPAGIGAQCVSGGKRILTVVGDGAFQMTGWELGNCRRLGIDPIVILFNNASWEMLRTFQPESAFNDLDDWRFADMAAGMGGDGVRVRTRAELKAALDKAFATRGRFQLIEAMIPRGVLSDTLARFVQGGKRLHAAPRE
notes: as for B1
Protein B5 has a K0.5 [9] of 1.9 ± 0.2 mM, a kcat [9] of 0.183 ± 0.013 s⁻¹ and a kcat/Km [9] of 96.7 ± 10 M⁻¹ s⁻¹. It also gave a K0.5 [10] of 0.76 ± 0.02 mM, a kcat [10] of 0.35 ± 0 s⁻¹ and a kcat/Km [10] of 467 ± 17 M⁻¹ s⁻¹.

— patent US10260060B2, “Genetically modified phenylpyruvate decarboxylase, processes to prepare, and uses thereof” (Dow Global Technologies LLC, priority 2014, dated 2019)
